Test results reported in publication PMC5737849, “Structural study of the Fox-1 RRM protein hydration reveals a role for key water molecules in RRM-RNA recognition”.
Residue numbers refer to the chain shown, from its start.

Key:
[1] = target: T1, Fox-1 RRM S155A (UniProt Q9NWB1 109-208, S155A); test: NMR (1H-1H TOCSY); 1:1 ratio, 20 mM NaCl, pH 6.5, 40 C; switchSENSE: 10 mM Tris-HCl pH 7.4, 140 mM NaCl, 0.05% Tween20, 25 C; NMR: 10 mM phosphate pH 6.5, 20 mM NaCl, 40 C; conditions: protein: recombinant; tags: N-terminal 6xHis (pET28a); single strand
T1 sequence: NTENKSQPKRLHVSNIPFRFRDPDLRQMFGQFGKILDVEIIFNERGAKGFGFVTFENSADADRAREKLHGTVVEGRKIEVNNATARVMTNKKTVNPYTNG

[2] = target: T2, Fox-1 RRM WT (UniProt Q9NWB1 109-208); test: as above; conditions: protein: recombinant; tags: N-terminal 6xHis (pET28a); single strand
T2 sequence: T1 sequence with A47S

B1: 5'-UGCAUGU-3' RNA oligonucleotide (NMR) (ssRNA)
RNA: UGCAUGU
[1]
  binding result: binds
[2]
  binding result: binds
